Laboratory results reported in publication PMC2045701, “Confocal fluorescence resonance energy transfer microscopy study of protein-protein interactions of lens crystallins in living cells” (Molecular Vision, 2007).

Target: GFP-αA-crystallin (UniProt P02489 2-173)
Test: cell-based or functional assay

GFP-αA-crystallin, sequence (P02489 2-173): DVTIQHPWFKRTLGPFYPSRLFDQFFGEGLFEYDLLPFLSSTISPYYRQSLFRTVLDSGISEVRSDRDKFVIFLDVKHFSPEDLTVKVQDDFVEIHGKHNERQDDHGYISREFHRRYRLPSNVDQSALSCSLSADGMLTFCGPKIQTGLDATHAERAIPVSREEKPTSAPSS

B1: RED-αB-crystallin (natural protein, UniProt P02511 2-175, looked up)
chain: DIAIHHPWIRRPFFPFHSPSRLFDQFFGEHLLESDLFPTSTSLSPFYLRPPSFLRAPSWFDTGLSEMRLEKDRFSVNLDVKHFSPEELKVKVLGDVIEVHGKHEERQDEHGFISREFHRKYRIPADVDPLTITSSLSSDGVLTVNGPRKQVSGPERTIPITREEKPAVTAAPKK
**Q.** With B1 as the binder, how does the “percentage of HeLa cells with protein aggregates, cotransfection of GFP-αA- and RED-αB-crystallin against RED-αB-crystallin alone (confocal microscopy)” value read?
**A.** The value was > 4 fold.
